This note sets out measurements from patent US20170226207A1 (Astellas, published 2017).

A word on the EC50: it is the midpoint of the concentration-response curve.

In one experiment the target is T1, monkey Igβ-Flag protein (monkey).
T1 chain: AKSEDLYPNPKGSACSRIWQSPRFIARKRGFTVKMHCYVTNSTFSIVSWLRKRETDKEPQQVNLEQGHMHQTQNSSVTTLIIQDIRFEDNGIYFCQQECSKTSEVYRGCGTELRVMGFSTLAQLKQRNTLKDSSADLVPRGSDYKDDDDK
Nature of the experiment: antigen ELISA, Igβ-Flag coated on plate, chemiluminescence. As to the method:
(§1) In order to measure the antigen binding activity of the humanized antibody, antigen ELISA was used. The human Igβ-Flag protein acquired in Example 1 was prepared with a tris-buffered saline (TBS; Wako Pure Chemical Industries, Ltd.) so as to have a concentration of 5000 ng/mL, added to a NUNC MaxiSorp white 384 plate (Maxisorp 384 plate: Nunc Corporation) by an amount of 15 μL per well, and then solidified at room temperature for 1 hour. The resultant was washed with TBS-T (0.05% Tween-20 containing TBS: Wako Pure Chemical Industries, Ltd.) twice, 120 μL of a blocking agent (Blocking One: Nacalai tesque, Inc.) was added thereto, the resultant was left at room temperature for 1 hour, and the solution was removed. A dilution series (8 steps with a final concentration of 0.46 ng/mL to 1 μg/mL) of respective humanized antibodies obtained in Example 3 was prepared using a dilute solution obtained by adding the same amount of the blocking agent and TBS and then added thereto by an amount of 15 μL. The resultant was left at room temperature for 1 hour, washed with a TBS-T washing liquid three times, and 20 μL of an horseradish peroxidase (HRP)-labeled rabbit anti-human Ig antibody (Dako Ltd.) which had been diluted 3000-fold with a diluted solution was added thereto. Thereafter, the resultant was left at room temperature for 1 hour and then washed with a TBS-T washing liquid three times. Next, 30 μL of BM-Chemiluminescence ELISA Substrate (POD) (Roche Diagnostics Inc.) which is a chemiluminescence detection reagent was added thereto, and the amount of chemiluminescence thereof was measured by an EnVision counter (PerkinElmer, Co., Ltd.). Using the same method, antigen ELISA assay was performed using the monkey Igβ-Flag protein acquired in Example 1. When the binding activities in respective concentrations of the test antibodies were calculated, the measuring amount of a well to which a test antibody was not added was set to 0% and the convergence value of the maximum activity of the test antibody was set to 100%. The calculated binding activities were analyzed and the EC50 values of the test antibodies were calculated by fitting a curve.
For orientation: In an ELISA, binding on a coated surface is turned into a signal by an enzyme label.

Another experiment concerns the target T2, human Igβ-Flag protein (human, UniProt P40259 29-159, limits assumed).
T2 construct: Expressed in FreeStyle 293 cells, purified from culture supernatant with anti-Flag M2 gel; not shown: Flag tag
T2 sequence (looked up): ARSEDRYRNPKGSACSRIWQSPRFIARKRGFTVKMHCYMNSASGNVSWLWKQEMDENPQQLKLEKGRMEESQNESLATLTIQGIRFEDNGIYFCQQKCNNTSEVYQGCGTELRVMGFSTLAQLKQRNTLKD
Described as above. As to the method: as §1

The target of experiment [1] is T3, human Igβ on human B cells (human, UniProt P40259 29-229).
T3 sequence (looked up): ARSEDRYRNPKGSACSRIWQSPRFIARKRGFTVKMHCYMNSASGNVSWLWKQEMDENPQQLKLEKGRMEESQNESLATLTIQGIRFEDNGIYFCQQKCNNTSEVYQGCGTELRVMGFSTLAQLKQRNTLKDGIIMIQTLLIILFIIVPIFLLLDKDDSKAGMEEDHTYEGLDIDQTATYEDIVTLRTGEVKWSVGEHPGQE
The experiment is described as follows: cell-based or functional assay.

B1: humanized antibody CL6_40m12_DDW (antibody, human IgG1, kappa, V domains shown)
VH: EVQMVESGGGLVQPGGSLRLSCAVSGFSLSSYSVHWVRQAPGKGLEWVAGIWSGGSIHYTPALSSRFTVSRDDSKNTVYLQMNSLRAEDTAVYYCARYDRYETYAMDYWGQGTLVTVSS
VL: DIQLTQSPSSLSASVGDRVTITCKASQSVDYDGDSYMNWYQQKPGKAPKLLIYAASNLESGVPSRFSGSGSGTDFTLTISSLQPEDFATYYCQQSNEDPLTFGQGTKVEIKR
notes: Humanized anti-human Igβ antibody
In the case of B1, the results for the EC50 with monkey Igβ-Flag protein and with human Igβ-Flag protein were 0.183 µg/mL and 0.128 µg/mL, respectively. Besides, in experiment [1], the “proliferation rate of human B cells (anti-IgM antibody-induced) at 30 µg/mL antibody” value (shortened to “proliferation rate of human B cells”) is 2.8%.

B2: humanized antibody CL6_40m14_DDW (antibody, human IgG1, kappa, V domains shown)
VH: QVQMQESGPGLVRPSQTLSLTCTVSGFSLSSYSVHWVRQPPGRGLEWIGGIWSGGSIHYTPALSSRVTVLRDTSKNQVSLRLSSVTAADTAVYYCARYDRYETYAMDYWGQGSLVTVSS
VL: DIQLTQSPSSLSASVGDRVTITCKASQSVDYDGDSYMNWYQQKPGKAPKLLIYAASNLESGVPSRFSGSGSGTDFTFTISSLQPEDIATYYCQQSNEDPLTFGQGTKVEIKR
modifications: pyroglutamylation at the N terminal of the heavy chain in most of the purified antibody (glutamine of amino acid number 1 modified to pyroglutamic acid)
notes: as for B1
For B2, the EC50 with monkey Igβ-Flag protein came out at 0.106 µg/mL; with human Igβ-Flag protein, 0.1 µg/mL. The “proliferation rate of human B cells” value in experiment [1] was 20.2%.

B3: humanized antibody CL6_40m16_DDW (antibody, human IgG1, kappa, V domains shown)
VH: EVQLVESGGGLVQPGGSLRLSCAVSGFSLSSYSVHWFRKAPGKGLEWLGGIWSGGSIHYTPALSSRLTVSRDISKNTVYLQMNSLRAEDTAVYYCARYDRYETYAMDYWGQGTLVTVSS
VL: DIVLTQSPSSLSASVGDRVTITCKASQSVDYDGDSYMNWYQQKPGKAPKLLIYAASNLESGVPSRFSGSGSGTDFTLTISSLQPEDFATYYCQQSNEDPLTFGQGTKVEIKR
notes: as for B1
In the case of B3, the EC50 with monkey Igβ-Flag protein worked out at 0.118 µg/mL; with human Igβ-Flag protein, 0.132 µg/mL. In addition, the “proliferation rate of human B cells” value in experiment [1] amounted to 23.2%.
